Measurements: PMC9583931, “Emerin interacts with histone methyltransferases to regulate repressive chromatin at the nuclear periphery” (Frontiers in Cell and Developmental Biology, 2022)

B1: EZH2 (enzyme)
chain: not shown
notes: EZH2, endogenous protein of mouse myogenic progenitors; also called catalytic component of PRC2; source: endogenous, mouse myogenic progenitors, in lysate (soluble fraction)
B2: euchromatic histone lysine methyltransferase 2 (G9a) (enzyme, UniProt Q9Z148 1-1263, looked up)
chain: MRGLPRGRGLMRARGRGRAAPTGGRGRGRGGAHRGRGRPRSLLSLPRAQASWAPQLPAGLTGPPVPCLPSQGEAPAEMGALLLEKEPRGAAERVHSSLGDTPQSEETLPKANPDSLEPAGPSSPASVTVTVGDEGADTPVGAASLIGDEPESLEGDGGRIVLGHATKSFPSSPSKGGACPSRAKMSMTGAGKSPPSVQSLAMRLLSMPGAQGAATAGPEPSPATTAAQEGQPKVHRARKTMSKPSNGQPPIPEKRPPEVQHFRMSDDMHLGKVTSDVAKRRKLNSGSLSEDLGSAGGSGDIILEKGEPRPLEEWETVVGDDFSLYYDAYSVDERVDSDSKSEVEALAEQLSEEEEEEEEEEEEEEEEEEEEEEEEEDEESGNQSDRSGSSGRRKAKKKWRKDSPWVKPSRKRRKREPPRAKEPRGVNGVGSSGPSEYMEVPLGSLELPSEGTLSPNHAGVSNDTSSLETERGFEELPLCSCRMEAPKIDRISERAGHKCMATESVDGELLGCNAAILKRETMRPSSRVALMVLCEAHRARMVKHHCCPGCGYFCTAGTFLECHPDFRVAHRFHKACVSQLNGMVFCPHCGEDASEAQEVTIPRGDGGTPPIGTAAPALPPLAHDAPGRADTSQPSARMRGHGEPRRPPCDPLADTIDSSGPSLTLPNGGCLSAVGLPPGPGREALEKALVIQESERRKKLRFHPRQLYLSVKQGELQKVILMLLDNLDPNFQSDQQSKRTPLHAAAQKGSVEICHVLLQAGANINAVDKQQRTPLMEAVVNNHLEVARYMVQLGGCVYSKEEDGSTCLHHAAKIGNLEMVSLLLSTGQVDVNAQDSGGWTPIIWAAEHKHIDVIRMLLTRGADVTLTDNEENICLHWASFTGSAAIAEVLLNAQCDLHAVNYHGDTPLHIAARESYHDCVLLFLSRGANPELRNKEGDTAWDLTPERSDVWFALQLNRKLRLGVGNRAVRTEKIICRDVARGYENVPIPCVNGVDGEPCPEDYKYISENCETSTMNIDRNITHLQHCTCVDDCSSSNCLCGQLSIRCWYDKDGRLLQEFNKIEPPLIFECNQACSCWRSCKNRVVQSGIKVRLQLYRTAKMGWGVRALQTIPQGTFICEYVGELISDAEADVREDDSYLFDLDNKDGEVYCIDARYYGNISRFINHLCDPNIIPVRVFMLHQDLRFPRIAFFSSRDIRTGEELGFDYGDRFWDIKSKYFTCQCGSEKCKHSAEAIALEQSRLARLDPHPELLPDLSSLPPINT
notes: G9a (EHMT2), endogenous protein of mouse myogenic progenitors; also called EHMT2; source: endogenous, mouse myogenic progenitors, in lysate (soluble fraction)
B3: emerin (endogenous, wildtype myogenic progenitors) (natural protein, UniProt O08579 1-259, looked up)
chain: MDDYAVLSDTELAAVLRQYNIPHGPIVGSTRKLYEKKIFEYETQRRRLLPPNSSSSSFSYQFSDLDSAAVDSDMYDLPKKEDALLYQSKDYNDDYYEESYLTTKTYGEPESVGMSKSFRQPGTSLVDADTFHHQVRDDIFSSLEEEGKDRERLIYGQDSAYQSIAHYRPISNVSRSSLGLSYYPTSSTSSVSSSSSSPSSWLTRRAIRPEKQAPAAALGQDRQVPLWGQLLLFLVFAAFLLFVYYSIQAEEGNPFWMDP
notes: emerin, endogenous protein of H2K wildtype mouse myogenic progenitors; also called wildtype emerin; endogenous emerin; source: endogenous, H2K wildtype mouse myogenic progenitors, in lysate (soluble fraction)
B4: emerin S54F (EDMD1 mutant) (natural protein, UniProt P50402 1-254, looked up)
chain: MDNYADLSDTELTTLLRRYNIPHGPVVGSTRRLYEKKIFEYETQRRRLSPPSSFAASSYSFSDLNSTRGDADMYDLPKKEDALLYQSKGYNDDYYEESYFTTRTYGEPESAGPSRAVRQSVTSFPDADAFHHQVHDDDLLSSSEEECKDRERPMYGRDSAYQSITHYRPVSASRSSLDLSYYPTSSSTSFMSSSSSSSSWLTRRAIRPENRAPGAGLGQDRQVPLWGQLLLFLVFVIVLFFIYHFMQAEEGNPF
notes: emerin with the EDMD1-causing mutation S54F; also called S54F emerin
B5: emerin Q133H (EDMD1 mutant) (natural protein, UniProt P50402 1-254, looked up)
chain: MDNYADLSDTELTTLLRRYNIPHGPVVGSTRRLYEKKIFEYETQRRRLSPPSSSAASSYSFSDLNSTRGDADMYDLPKKEDALLYQSKGYNDDYYEESYFTTRTYGEPESAGPSRAVRQSVTSFPDADAFHHHVHDDDLLSSSEEECKDRERPMYGRDSAYQSITHYRPVSASRSSLDLSYYPTSSSTSFMSSSSSSSSWLTRRAIRPENRAPGAGLGQDRQVPLWGQLLLFLVFVIVLFFIYHFMQAEEGNPF
notes: emerin with the EDMD1-causing mutation Q133H; also called Q133H emerin

How the values were obtained:
Settings in all cases: partners not purified
[1] = target: B5; experiment: co-IP; anti-emerin antibody on protein G magnetic beads, incubated overnight with the soluble fraction of sonicated whole-cell lysates (modified NEHN buffer, 500 mM NaCl, 1% NP-40) of proliferating myogenic progenitors; blot for G9a or EZH2; densitometry, ratio of bound to input
[2] = target: B3; experiment: as above
[3] = target: B4; experiment: as above
[4] = target: B2; experiment: co-IP; anti-G9a antibody on protein G magnetic beads, incubated overnight with the soluble fraction of sonicated whole-cell lysates (modified NEHN buffer, 500 mM NaCl, 1% NP-40) of proliferating myogenic progenitors; blot for emerin; densitometry, ratio of bound to input
EZH2 = target: B1; experiment: co-IP; anti-EZH2 antibody on protein G magnetic beads, incubated overnight with the soluble fraction of sonicated whole-cell lysates (modified NEHN buffer, 500 mM NaCl, 1% NP-40) of proliferating myogenic progenitors; blot for emerin; densitometry, ratio of bound to input
Sequence of EZH2 (Q61188 whole entry): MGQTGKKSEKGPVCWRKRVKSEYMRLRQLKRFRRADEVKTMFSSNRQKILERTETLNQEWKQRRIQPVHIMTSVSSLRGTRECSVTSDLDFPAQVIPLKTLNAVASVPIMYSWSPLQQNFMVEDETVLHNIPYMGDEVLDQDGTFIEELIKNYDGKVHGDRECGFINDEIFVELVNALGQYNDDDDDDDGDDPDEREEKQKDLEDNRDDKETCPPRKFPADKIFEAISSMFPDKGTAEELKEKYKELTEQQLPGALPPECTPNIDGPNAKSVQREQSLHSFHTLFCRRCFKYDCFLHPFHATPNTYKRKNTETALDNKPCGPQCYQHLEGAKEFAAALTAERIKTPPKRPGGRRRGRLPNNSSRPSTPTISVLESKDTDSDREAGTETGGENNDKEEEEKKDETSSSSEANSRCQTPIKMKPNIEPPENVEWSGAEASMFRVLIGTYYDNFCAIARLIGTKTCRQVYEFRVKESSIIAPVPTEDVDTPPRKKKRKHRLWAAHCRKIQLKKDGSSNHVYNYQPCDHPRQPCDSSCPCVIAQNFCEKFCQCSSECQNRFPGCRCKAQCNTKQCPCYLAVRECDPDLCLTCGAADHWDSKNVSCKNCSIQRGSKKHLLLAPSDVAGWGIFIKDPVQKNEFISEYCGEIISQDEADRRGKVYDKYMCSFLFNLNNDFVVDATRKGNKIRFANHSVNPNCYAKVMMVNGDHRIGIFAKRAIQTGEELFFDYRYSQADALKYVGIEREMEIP

Binder	percent of input bound [1] [%]	percent of input bound [2] [%]	percent of input bound [3] [%]	percent of input bound [4]	percent of input bound (EZH2) [%]
B1	89.4	2.4	57.9		
B2	9.6	0.2	13.8		
B3				0.76 % of input	0.7
B4				80.9 % of input	71.8
B5				45.1 % of input	77.8
